Test system: CIZ1 N571 (GST-N571) (Mus musculus)
Test: EMSA
Conditions: 0.3 nM RNA; 10 mM Tris-HCl pH 7.5, 30 mM NaCl, 2.5 mM MgCl2, 0.2 mM DTT, 0.1% IGEPAL CA-630, 0.1 mg/ml yeast tRNA, 0.4 U RNaseOUT, 1% glycerol; 30 C 20 min; 0.7% agarose …

Substance	K half
Xist repeat A	200 nM
Xist repeat E proximal	100 nM

Source: PMC8927971
